We go through twelve sequences from a protein production outcome set (Wang et al. 2014).

The data set is described as follows: label from the status in PepcDB records.

Take “MRITHLGHSCILVEAAGQRILVDPGNLSRSWRGLTDLDAILVTHRHPDHVDPEHIGALVDANSGAVVRAEEGACHEIPALDADPVAPGDVLQIGEVRIEAVGGRHAVIHRDLEPIGNVGYLIGEGLGTILYHPGDELDETPRGVDVLACPAHAPWAAMKETVDFARSVGARHGFLIHEGLLNGRGWQLSFDRHQEMVP”: the protein production result is “failed”. The result for “MRITHLGHSCILVEAAGQRILVDPGNLSRSWRGLTDLDAILVTHRHPDHVDPEHIGALVDANSGAVVRAEEGACHEIPALDADPVAPGDVLQIGEVRIEAVGGRHAVIHRDLEPIGNVGYLIGEGLGTILYHPGDELDETPRGVDVLACPAHAPWAAMKETVDFARSVGARHGFLIHEGLLNGRGWQLSFDRHQEMVPTTFHDLRNGQPWEVPQDLEHHHHHH” reads “failed”; that for “MRKAYLMESIQPWIEKFIKQAQQQRSQSTKDYPTSYRNLRVKLSFGYGNFTSIPWFAFLGEGQEASNGIYPVILYYKDFDELVLAYGISDTNEPHAQWQFSSDIPKTIAEYFQATSGVYPKKYGQSYYACSQKVSQGIDYTRFASMLDNIINDYKLIFNSGKSVIPPMSKTESYCLEDALNDLFIPETTIETILKRLTIKKNIILQGPPGVGKTFVARRLAYLLTGEKAPQRVNMVQFHQSYSYEDFIQGYRPNGVGFRRKDGIFYNFCQQAKEQPEKKYIFIIDEINRANLSKVFGEVMMLMEHDKRGENWSVPLTYSENDEERFYVPENVYIIGLMNTADRSLAVVDYALRRRFSFIDIEPGFDTPQFRNFLLNKKAEPSFVESLCQKMNELNQEISKEATILGKGFRIGHSYFCCGLEDGTSPDTQWLNEIVMTDIAPLLEEYFFDDPYKQQKWTNKLLGDS”, “failed”. For the sequence “MRKIMREIAVYGKGGIGKSTLSANLSAALALAGRKVLQIGCDPKHDSTRLLTHGREMPTVLDYMRVTNPLDYRLEEVLAHGFSGVGCVEAGGPNPGVGCAGRGIISTFEFLDRFRLKERYDTVVYDVLGDVVCGGFAVPIRKEYADTIFIVTSGEFMALYAANNILRGVRNYDNEEKRIAGILYNRRNIEGEDDRVARFAGAVGLSVCAVIPRSDSFTRAERGKMTVMEQGSDKAIMSIFSGLAQALISGCALHEAKPLTDNELEAIVLGSISSTGGPLSGPDSLPASVTEEPSAAGPPPEIGLTDPNRYLSKNILRSEPLHGCAFNGAMSVGAQISDAVILAHSPKSCTHIMYQTISSAGRRTLFERGALLPVSLAPNLESTDMGEAEMIFGGMEKLEEKILELKARQPRAIVVVSACPAGIIGDDIGRTRRFSEPGLPVVTLKTDGNLAGDYLQGMLMAYTSLARQVIRKDVPTLPDTVNIVFEKFIVTNTNDNFQTIGSLLSRLGVRVNCRFLCETTFDSLETFCTAQLNLLAYKDYTGKLLEDFFTREYGSVFLDRAFPVGFAETEDWLRDVAAFFGRPAAAEGIIEEHKELYAREVEALKADLAGKRLMIITYNHELDWILKTALDVGIDIVKIGVFNFSQDEGFRTRLDAAFNVVENYDRGERDQDIAAYKPDILLTNYASSLADEPFVADTIPMCPDVGFHSGLVLARRWARLLKLNLKGEWRQDELLFRQYYAG”, the protein production entry is reported as “failed”.

In the case of “MRKINIFKGKHNPQRTAIDFFKYVGPGLLVTVGFIDPGNWASNVSAGSDYGYSLLWIVTLSTIMLIILQHNAAHLGIVTGDCLSEAVSKKFKPWLTNIILYSAIGAAISTAMAELLGGAIALNMLFRLPIKIGTLIMLSLVIWMLFSSSYKKLERWIIGFVSIIGLSFIFELLLVKVNWQVAAVSFVSPSFPKNSMPIIMSVLGAVVMPHNLFLHSEIIQSRQWNVEKEDVIKRQLRYEFLDTIISMIVGFAINSAMVLLAASTFFKMHVSVSELSQAQALLKPLLGGSASVVFALALLFSGIASTVTAGMAGGSIFAGIYKEPYDIEDSHTQIGVIITMVLAAVIIFFIKDPFKGLIYSQMILSIQLPITIFTQIYLTSSKKVMGKFSNSLLDRVLLGIIAVIVTALNIALLVSYF”, the protein production result is given as “failed”. For “MRKKLNNEYRSAKKIRYMPGLDGLRAIAVIGIIIYHLNKQWLTGGFLGVDTFFVISGYLITSLLLKEYEDTGTINLKNFWIRRIKRLLPAVFALIVVVGIATLLLHPEHIVRVKHDMIAAIFYVSNWWYIAKDVNYFEQFSFMPLKHLWSLAIEEQFYLFFPAVLLLFMAIVKKKKNVILMFWIISLVSLLMMVVISQPHLNHSRVYFGTDTRLQTLLLGVLLAFIWPPFKLNPNPPKGLKTVINSAGIIGLTFLILLFFTVSDESDWIYNGGFYLISTMTLLIIASVVHPTTILAKLLGNPLFVYIGKRSYSLYLWHFPVISFIHSYFIDGQLPTYVYIMDIVITVLLAELSFRYVETPLRKEGLKAFTFKKTYKPQFIRTIVTLIMLLPFIFILVGAFDKFGKDTISNKAQTFNTNEADQYLIHMIPIDNISLTSDGKTKENKKDNDVYTQIKPLLIGDSVMVDIGEQFKTKVPKAKIDGKVGRQLYQAESLVKNQYRHYNKPSDQIILELGTNGDFTKEQLDNLIDKFGKAQVYLVNTRVPRSYESHVNELMAKAAKNKKNVTLIDWYSRSKGHTEYFAPDGIHLENDGVEALTDEILKNIKKK”, the protein production result is listed as “failed”. The result for “MRKLTFLLTFFMLLGSVQLQAKEYAIKDIPMVHLQNRTRYVSNPDGILSSTAVTTMDSILYALEQKTGIQTLVVAVTGIEGGDCFDFAHRLGQETGVGQKERDNGLVILLSTDERCVQFATGYGLEGILPDAICKRIQNRYMLPYFKDNNWNAGMVAGIRAVNGYLDGSMENIGNDESEDDPLEFIIIFFVIFGGFIGIGLYANWRKTRCPHCKKHKLQRLSSKVIDRSNGTKTEEVVYKCRNCGHILRRKERSRDENYKGPRGGGPFIGGMGGGFFGGHGGSGGGFSGGSFGGGSFGGGGAGSRF” reads “failed”.

Turning to “MRKNILITGVHGYIGNALKDKLIEQGHQVDQINVRNQLWKSTSFKDYDVLIHTAALVHNNSPQARLSDYMQVNMLLTKQLAQKAKAEDVKQFIFMSTMAVYGKEGHVGKSDQVDTQTPMNPTTNYGISKKFAEQALQELISDSFKVAIVRPPMIYGAHCPGNFQRLMQLSKRLPIIPNINNQRSALYIKHLTAFIDQLISLEVTGVYHPQDSFYFDTSSVMYEIRRQSHRKTVLINMPSMLNKYFNKLSVFRKLFGNLIYSNTLYENNNALEIIPGKMSLVIADIMDETTTKDKA”, the protein production result was “failed”. Regarding “MRKVLFTVALLLTACFVSAQVSVVKEAKSLKSKPEEAAKAIEPALTNPETANDPETWKLAGDFQKAIYDEENMKLYLPGGQADTTKLYNSLAKMYDFYLKCDEIEQAKVQSGELKKPKFRKKNADALKTLRLNLVNGGGDAYNKGDYADALKYFGLFVDVVNEPMFADDDELKADTLNALYACYATLAANMLKDNQAVIKYGNIGKNHKEEGYRALMCLAETYGQKEGGDSAKWLEVIKEGTESFPKQEYFVGNIMDYYIQKGMVDEGLAQINKLLATSETPYYLYVKGILLYEKKQYDDAVAIFNKIISNNGDLVAEAYSKIGDCYFFPAQIIVEENAKLAIDDPKYNENENKIKELYEKAKPYYEKAKELKPDNKALWGNYLLNIYWKLNRAEYDSLEKELGY”, the protein production entry is given as “failed”. Under “MRLAEGIVIEKEKTFGTLKFSALRREVKIVDDEGNVTEQVKERTFDLKKEQGRMIQVSIPASAGVKNFDYNAEVEIINPIADTVATATFQGADVDWYIKAEDIVLKRPAQNQQADQKQNHDKKLEHHHHHH” stands “failed”; under “MRLERTFDPNDLSTQNMESPICLPIGFVHFLAQSQTLQQVLDTVAEWINRIFESDRTSITLYENSDYLKVYSFSGNKAIPADFLVPIDQAFVGRVFKNQQLIICDDVSQSDELDCVMLTSSGMGTCMDAPLMHGQMCLGTLNVAHHQTHFYTKEQAAQLQCIANWIALNIALHIQIMKMEHLATTDDLTGIPNRREFMRQIEHRLSEFRTQGIKFHVAILDLDNFKKLNDKFGHDAGDKSLIHAANTIKGHLRECDLLARVGGEEFAIVLRSRSSQEAMDTLETIRNALETTTIRYSGRDMTFTASIGVTQVCGLDDSFEPLVKRADLALYKAKETGRNRVEINHSEHQGVSNEQ”, “failed”; under “MRLFAINAGNFKLDGGAMFGVVPKSIWNKLNPADSNNLCTWATRCLLIENGKQLVLIDTGLGDKQDESFFRHYYRDTPQTWDTLLKPYGFHSSDITDVVLTHLHFDHVGGALEKKGDKIVPTFSNARYWSNTRHWDWAVEPNPREKASFLKDNLFPLQESGQLYFVDTQNLPFEWMDFIFVDGHTEQQMLPLITTPAEKKILYAADLLPSAGHIPMPYIMSYDVRPLVSMQEKERVFNQVLAEDWTVFLEHDLSNACISLQQTEKGIRLNNVFQISDFNLEHHHHHH”, “failed”.
